We go through 2 substances from publication PMC5717063.

Experiment [1] concerns the target mammalian wild-type HSP60 purified from porcine liver (porcine).
Experiment [2] shares this target. As to the kind of experiment: transmission electron microscopy; HSP60 with HSP10 and ATP; side views classified, over 100 molecules counted.
The target is the same in experiment [3]. In words: transmission electron microscopy; HSP60 alone, without nucleotide (Figure S1A).
For experiment [4] the target is unchanged. In words: transmission electron microscopy; HSP60 alone with GTP; side views classified, over 100 molecules counted.
Experiment [5] has the same target. As to the kind of experiment: transmission electron microscopy; HSP60 alone with ATP; side views classified, over 100 molecules counted.

Take “mammalian wild-type HSP10 purified from porcine liver (from UniProt F1SMZ6 1-102) (natural protein)”: in experiment [1], the refolding yield of chemically denatured rhodanese by HSP60/HSP10 in the presence of GTP (recovery of enzymatic activity, 60 min) is 40%.
As a reminder, the stoichiometry N is a count of units in the complex or per binding partner. Consider “mammalian wild-type HSP60 purified from porcine liver (natural protein)”, for which the percent of HSP60 in double-ring structures in experiment [2] was determined as 70%. In experiment [3], this substance had a stoichiometry N of 7. Moreover, in experiment [4], the percent of HSP60 as double-ring was 20%. In experiment [5], this substance registered a percent of HSP60 as double-ring (HSP60 14) of 40% and a stoichiometry N of 14.
